Data as given in publication PMC10681739, “High-throughput data and modeling reveal insights into the mechanisms of cooperative DNA-binding by transcription factor proteins”.

T1: ETS1 x2 (Homo sapiens, UniProt P14921)
T1 sequence: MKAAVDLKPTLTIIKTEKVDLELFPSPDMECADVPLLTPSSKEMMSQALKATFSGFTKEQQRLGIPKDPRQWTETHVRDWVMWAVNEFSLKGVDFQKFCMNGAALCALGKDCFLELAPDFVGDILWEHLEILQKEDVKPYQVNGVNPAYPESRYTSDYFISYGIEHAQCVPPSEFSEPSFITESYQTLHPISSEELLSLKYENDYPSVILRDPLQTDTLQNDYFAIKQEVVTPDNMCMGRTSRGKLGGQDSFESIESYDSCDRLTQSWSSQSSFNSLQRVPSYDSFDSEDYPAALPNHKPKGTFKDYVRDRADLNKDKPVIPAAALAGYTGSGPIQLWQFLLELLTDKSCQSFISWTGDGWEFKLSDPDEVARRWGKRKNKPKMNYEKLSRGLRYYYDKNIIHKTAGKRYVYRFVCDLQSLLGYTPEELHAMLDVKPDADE

B1: Table S4 A row 1346 (dsDNA)
DNA 1: TTCCCAGGAAGCCCCAAAGCCCTGGCTTCCGCCCAA
DNA 2: TTGGGCGGAAGCCAGGGCTTTGGGGCTTCCTGGGAA
B2: Table S4 A row 1336 (dsDNA)
DNA 1: AGGTCGGAAGCGCTTCTACTGCAGCTCCGGAAAGGG
DNA 2: CCCTTTCCGGAGCTGCAGTAGAAGCGCTTCCGACCT
B3: Table S4 A row 1968 (dsDNA)
DNA 1: GTGATTGGCAGGATCCTGGTATCCGCTAACAGGTAC
DNA 2: GTACCTGTTAGCGGATACCAGGATCCTGCCAATCAC
B4: Table S4 A row 2621 (dsDNA)
DNA 1: TGGAGCCGGGGGAAGTGGGAGCATCCGCAGCCCCGC
DNA 2: GCGGGGCTGCGGATGCTCCCACTTCCCCCGGCTCCA
B5: Table S4 A row 1993 (dsDNA)
DNA 1: ATCACGGGGCCCATCCGGGGAGGAAGGCGGCACAGG
DNA 2: CCTGTGCCGCCTTCCTCCCCGGATGGGCCCCGTGAT
B6: Table S4 A row 258 (dsDNA)
DNA 1: GCTTATCACTGAAGGAAACAGGATGCTAAATGTACG
DNA 2: CGTACATTTAGCATCCTGTTTCCTTCAGTGATAAGC
B7: Table S4 A row 493 (dsDNA)
DNA 1: TGGTAAACGGAAGAGACCTCTCCTGTTCCGGGAGTA
DNA 2: TACTCCCGGAACAGGAGAGGTCTCTTCCGTTTACCA
B8: Table S4 A row 1719 (dsDNA)
DNA 1: GGACCTACAGGAAGACTGACTAGCTTCCTTCGAGCC
DNA 2: GGCTCGAAGGAAGCTAGTCAGTCTTCCTGTAGGTCC
B9: Table S4 A row 1107 (dsDNA)
DNA 1: ACGGCCACCAGGAGGAAACTTCCTCTGAATCTTCCA
DNA 2: TGGAAGATTCAGAGGAAGTTTCCTCCTGGTGGCCGT
B10: Table S4 A row 1360 (dsDNA)
DNA 1: CAGAACGCACAGGAAGAGAGAGGAAACCAAGTGGGT
DNA 2: ACCCACTTGGTTTCCTCTCTCTTCCTGTGCGTTCTG
B11: Table S4 A row 1074 (dsDNA)
DNA 1: CACGCACATCCCCAGTGAGTAACACTTCCTGAGGGC
DNA 2: GCCCTCAGGAAGTGTTACTCACTGGGGATGTGCGTG
B12: Table S4 A row 1584 (dsDNA)
DNA 1: TGTGTCGGACAGGAACTCGGCTTCCTTTGTGCCTCT
DNA 2: AGAGGCACAAAGGAAGCCGAGTTCCTGTCCGACACA
B13: Table S4 A row 273 (dsDNA)
DNA 1: TAATACAACTGGGGAAGTCACTTCCTTGCTGAGCTT
DNA 2: AAGCTCAGCAAGGAAGTGACTTCCCCAGTTGTATTA
B14: Table S4 A row 1105 (dsDNA)
DNA 1: GCCAGAGGGGCGGAAGAACCCGGAAGACCCAGGCAG
DNA 2: CTGCCTGGGTCTTCCGGGTTCTTCCGCCCCTCTGGC
B15: Table S4 A row 761 (dsDNA)
DNA 1: TTGCCGGATGAGGTTGGTTGTCTCTAATTTCCTCTC
DNA 2: GAGAGGAAATTAGAGACAACCAACCTCATCCGGCAA
B16: Table S4 A row 1783 (dsDNA)
DNA 1: ACCCCGGATGGCACCGCGAGTCCCCGTTTCCGACAA
DNA 2: TTGTCGGAAACGGGGACTCGCGGTGCCATCCGGGGT
B17: Table S2 A row 1411 (dsDNA)
DNA 1: GAGGGGGAGGTTTCCGGGGCCTGTGGTTACTACACT
DNA 2: AGTGTAGTAACCACAGGCCCCGGAAACCTCCCCCTC
B18: Table S2 A row 1399 (dsDNA)
DNA 1: TCGCACCGGAACCCCTTGGCGGATTATGTGGGTTCC
DNA 2: GGAACCCACATAATCCGCCAAGGGGTTCCGGTGCGA
B19: Table S2 A row 1529 (dsDNA)
DNA 1: GGTGCCTGGGGAGGATGTGGGCTGACTGGGAGGGGT
DNA 2: ACCCCTCCCAGTCAGCCCACATCCTCCCCAGGCACC
B20: Table S2 A row 1000 (dsDNA)
DNA 1: CCCATTTCCTGCTCTCCAGAGTTAACCACTGAAGTC
DNA 2: GACTTCAGTGGTTAACTCTGGAGAGCAGGAAATGGG
B21: Table S2 A row 670 (dsDNA)
DNA 1: TGAGCACAGTATTTCCTGTGGTTTCTATTGCATTTC
DNA 2: GAAATGCAATAGAAACCACAGGAAATACTGTGCTCA
B22: Table S2 A row 1056 (dsDNA)
DNA 1: GGGTCTCCAGGAAGCCACTCACCACAAACTTTGACA
DNA 2: TGTCAAAGTTTGTGGTGAGTGGCTTCCTGGAGACCC
B23: Table S2 A row 140 (dsDNA)
DNA 1: AGTTACAGTAAAGGATGTGGTGAAACAGATGTTTAT
DNA 2: ATAAACATCTGTTTCACCACATCCTTTACTGTAACT
B24: Table S2 A row 342 (dsDNA)
DNA 1: ACACCCCAGGAAGTGGCAGAGACCACAACAAGTCAG
DNA 2: CTGACTTGTTGTGGTCTCTGCCACTTCCTGGGGTGT
B25: Table S2 A row 712 (dsDNA)
DNA 1: GACTTTTACGGAAATAGCAGTCCAAAACCGCGTCTA
DNA 2: TAGACGCGGTTTTGGACTGCTATTTCCGTAAAAGTC
B26: Table S2 A row 127 (dsDNA)
DNA 1: CAAGCCAGGAAGAGGGCCCTCACCAGAAACCGCACT
DNA 2: AGTGCGGTTTCTGGTGAGGGCCCTCTTCCTGGCTTG
B27: Table S2 A row 83 (dsDNA)
DNA 1: GACAGACCTTAGGAAGTCGCGGTTTCATCAGGGCTT
DNA 2: AAGCCCTGATGAAACCGCGACTTCCTAAGGTCTGTC
B28: Table S2 A row 1129 (dsDNA)
DNA 1: CACTTCCTCCTCGGGGGCCTCAGAAAACCACAGGGC
DNA 2: GCCCTGTGGTTTTCTGAGGCCCCCGAGGAGGAAGTG
B29: Table S2 A row 1444 (dsDNA)
DNA 1: TGCTTAGCGGGAAGTGCTTACACCACAAAACAAGAC
DNA 2: GTCTTGTTTTGTGGTGTAAGCACTTCCCGCTAAGCA
B30: Table S2 A row 337 (dsDNA)
DNA 1: ATAGTCTCTTCCTGTGTTGCAAACCACAGGTCCACC
DNA 2: GGTGGACCTGTGGTTTGCAACACAGGAAGAGACTAT
B31: Table S2 A row 388 (dsDNA)
DNA 1: GCAGTTTCAAGAGGATGTGGTCTCTTTCACTGCCTG
DNA 2: CAGGCAGTGAAAGAGACCACATCCTCTTGAAACTGC
B32: Table S2 A row 1288 (dsDNA)
DNA 1: TCTCTATGGTTTCCGTTGGGTGTGTGGTTTTTTTGT
DNA 2: ACAAAAAAACCACACACCCAACGGAAACCATAGAGA
B33: Table S2 A row 963 (dsDNA)
DNA 1: GGGTCGCGGCCTTCCGGCGAACGCGGTTACCGTGGA
DNA 2: TCCACGGTAACCGCGTTCGCCGGAAGGCCGCGACCC
B34: Table S2 A row 769 (dsDNA)
DNA 1: CAAGCCAACATCCTGACAGTTTAGAAACCACAGGAG
DNA 2: CTCCTGTGGTTTCTAAACTGTCAGGATGTTGGCTTG
B35: Table S2 A row 988 (dsDNA)
DNA 1: TCATGCTGCTTCCTGCCCAACCCGCAGTTCCGATAA
DNA 2: TTATCGGAACTGCGGGTTGGGCAGGAAGCAGCATGA
B36: Table S2 A row 465 (dsDNA)
DNA 1: TGAGGGGCTCGCCGGGAAATGTGGTTTAGCGGCCCT
DNA 2: AGGGCCGCTAAACCACATTTCCCGGCGAGCCCCTCA
B37: Table S2 A row 672 (dsDNA)
DNA 1: ATGTGCCCAAAGGATGTCACCGCAAAGATCATAGGA
DNA 2: TCCTATGATCTTTGCGGTGACATCCTTTGGGCACAT
B38: Table S2 A row 1237 (dsDNA)
DNA 1: AGCCTACATCCTGCACTGCTTAACCACAGCCCGCCT
DNA 2: AGGCGGGCTGTGGTTAAGCAGTGCAGGATGTAGGCT
B39: Table S2 A row 1201 (dsDNA)
DNA 1: GTTGAGTTCCGGGGGAGGTTGAGTTCCTGCGGTCAA
DNA 2: TTGACCGCAGGAACTCAACCTCCCCCGGAACTCAAC
B40: Table S2 A row 378 (dsDNA)
DNA 1: GAAAAAAATGAGCTTCCTTTAACCACAACTGTATTA
DNA 2: TAATACAGTTGTGGTTAAAGGAAGCTCATTTTTTTC
B41: Table S2 A row 308 (dsDNA)
DNA 1: GCCGCTGCCTCTTCCTGTGTGGTTTTTCAGGGCTTA
DNA 2: TAAGCCCTGAAAAACCACACAGGAAGAGGCAGCGGC

molecular target: T1, ETS1 x2; assay: gcPBM; 10 nM ETS1; conditions: tags: N-terminal GST (pDEST15), kept (PMC6008103); chain copies: 2; label: surface-attached array probe

Row | Binder | binding signal
1 | B1 | 774 PBM fluorescence, median of replicate spots
2 | B2 | 806 PBM fluorescence, median of replicate spots
3 | B3 | 599 PBM fluorescence, median of replicate spots
4 | B4 | 698 PBM fluorescence, median of replicate spots
5 | B5 | 950 PBM fluorescence, median of replicate spots
6 | B6 | 844 PBM fluorescence, median of replicate spots
7 | B7 | 743 PBM fluorescence, median of replicate spots
8 | B8 | 912 PBM fluorescence, median of replicate spots
9 | B9 | 872 PBM fluorescence, median of replicate spots
10 | B10 | 1100 PBM fluorescence, median of replicate spots
11 | B11 | 653 PBM fluorescence, median of replicate spots
12 | B12 | 1040 PBM fluorescence, median of replicate spots
13 | B13 | 849 PBM fluorescence, median of replicate spots
14 | B14 | 832 PBM fluorescence, median of replicate spots
15 | B15 | 764 PBM fluorescence, median of replicate spots
16 | B16 | 645 PBM fluorescence, median of replicate spots

molecular target: ETS1:RUNX1 (Homo sapiens, UniProt P14921;Q01196 full;full); assay: gcPBM; 1 nM ETS1 + 25 nM RUNX1, anti-ETS1 signal, normalised; conditions: tags: N-terminal GST (pDEST15), kept (PMC6008103); copies: 1;1; label: surface-attached array probe
Sequence (Q01196 whole entry, one chain of several): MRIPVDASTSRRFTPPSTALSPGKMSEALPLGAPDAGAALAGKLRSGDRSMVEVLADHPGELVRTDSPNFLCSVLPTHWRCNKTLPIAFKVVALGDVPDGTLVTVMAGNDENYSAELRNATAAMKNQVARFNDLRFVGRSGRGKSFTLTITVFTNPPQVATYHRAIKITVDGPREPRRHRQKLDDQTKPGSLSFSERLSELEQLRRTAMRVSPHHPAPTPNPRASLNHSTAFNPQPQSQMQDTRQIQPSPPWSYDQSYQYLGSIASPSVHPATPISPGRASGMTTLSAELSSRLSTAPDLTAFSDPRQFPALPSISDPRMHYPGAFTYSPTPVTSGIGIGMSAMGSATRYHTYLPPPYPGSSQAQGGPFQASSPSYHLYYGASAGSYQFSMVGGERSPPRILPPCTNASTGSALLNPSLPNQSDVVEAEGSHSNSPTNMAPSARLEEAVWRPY

Row | Binder | binding signal
17 | B17 | 1620 PBM fluorescence, median of replicate spots
18 | B18 | 1490 PBM fluorescence, median of replicate spots
19 | B19 | 1520 PBM fluorescence, median of replicate spots
20 | B20 | 1350 PBM fluorescence, median of replicate spots
21 | B21 | 1550 PBM fluorescence, median of replicate spots
22 | B22 | 1560 PBM fluorescence, median of replicate spots
23 | B23 | 1480 PBM fluorescence, median of replicate spots
24 | B24 | 1810 PBM fluorescence, median of replicate spots
25 | B25 | 1340 PBM fluorescence, median of replicate spots
26 | B26 | 1640 PBM fluorescence, median of replicate spots
27 | B27 | 1710 PBM fluorescence, median of replicate spots
28 | B28 | 1580 PBM fluorescence, median of replicate spots
29 | B29 | 1280 PBM fluorescence, median of replicate spots
30 | B30 | 1690 PBM fluorescence, median of replicate spots
31 | B31 | 1800 PBM fluorescence, median of replicate spots
32 | B32 | 1410 PBM fluorescence, median of replicate spots
33 | B33 | 1180 PBM fluorescence, median of replicate spots
34 | B34 | 1670 PBM fluorescence, median of replicate spots
35 | B35 | 1730 PBM fluorescence, median of replicate spots
36 | B36 | 1230 PBM fluorescence, median of replicate spots
37 | B37 | 1400 PBM fluorescence, median of replicate spots
38 | B38 | 1360 PBM fluorescence, median of replicate spots
39 | B39 | 1630 PBM fluorescence, median of replicate spots
40 | B40 | 1320 PBM fluorescence, median of replicate spots
41 | B41 | 1610 PBM fluorescence, median of replicate spots
